These results are taken from US7135170B2 (ZymoGenetics, Inc., priority 2002, dated 2006).

The test system of one assay is HSV-2. The experiment in a line: HSV-2 cytopathic effect inhibition in Vero cells. It counts as cell-based, Herpes Simplex Virus-2. Conditions: HSV-2, Vero cells. The protocol: The Vero cells are propagated in Dulbecco's modified essential medium (DMEM) containing phenol red with 10% horse serum, 1% glutamine and 1% penicillin-streptomycin, while the CPE inhibition assays are performed in DMEM without phenol red with 2% FBS, 1% glutamine and 1% Pen-Strep. On the day preceding the assays, cells were trypsinized (1% trypsin-EDTA), washed, counted and plated out at 10^4 cells/well in a 96-well flat-bottom BioCoat® plates (Fisher Scientific, Pittsburgh, Pa.) in a volume of 100 μl/well. The next morning, the medium was removed and a pre-titered aliquot of virus was added to the cells. The amount of virus used is the maximum dilution that would yield complete cell killing (>80% ) at the time of maximal CPE development. Cell viability is determined using a CellTiter 96® reagent (Promega) according to the manufacturer's protocol, using a Vmax plate reader (Molecular Devices, Sunnyvale, Calif.). Compounds are tested at six concentrations each, diluted in assay medium in a half-log series. Acyclovir was used as a positive control. Compounds are added at the time of viral infection. The average background and drug color-corrected data for percent CPE reduction and percent cell viability at each concentration are determined relative to controls and the IC50 calculated relative to the TC50.
(In general: Damage to the host cells serves as the signal in cytopathic effect assays.)

In another assay the test system is adenoviral vector, AdGFP. The experiment in a line: Adenoviral vector (AdGFP) liver pathology in mice. The following applies: for liver and inflammation scores (histology): vs the PBS-treated group.
Assay [1] concerns ISG induction (OAS, Pkr, Mx1) in AML-12 cells. The experiment in a line: ISG induction in the mouse liver cell line AML-12 (real-time PCR). It counts as cell-based. Conditions: AML-12, 20 ng/ml, 48 hour time point. Here is the method: AML-12 cells were plated in 6-well plates in complete DMEM media at a concentration of 2×10^6 cells/well. […] As a control, cells were either stimulated with mouse IFNα (positive control) or unstimulated (negative). […] RNA was isolated from cell pellets using RNAEasy-kit® (Qiagen, Valencia, Calif.). RNA was treated with DNase (Millipore, Billerica, Mass.) to clean RNA of any contaminating DNA. cDNA was generated using Perkin-Elmer RT mix. ISG gene induction was evaluated by real-time PCR using primers and probes specific for mouse OAS, Pkr and Mx1. To obtain quantitative data, HPRT real-time PCR was duplexed with ISG PCR. A standard curve was obtained using known amounts of RNA from IFN-stimulated mouse PBLs. All data are shown as expression relative to internal HPRT expression.
All data shown were expressed as fold relative to HPRT gene expression
(In general: Real-time PCR tracks product formation cycle by cycle.)

In a further assay the test system is Mouse B cells. The experiment in a line: Mouse B cell 3H-thymidine incorporation. It counts as cell-based. Here is the method:
Mouse B cells were isolated from 2 Balb/C spleens (7 months old) by depleting CD43+ cells using MACS magnetic beads. Purified B cells were cultured in vitro with LPS, anti-IgM or anti-CD40 monoclonal antibodies. Mouse IL-28 or mouse IFNα was added to the cultures and ^3H-thymidine was added at 48 hrs. and ^3H-thymidine incorporation was measured after 72 hrs. culture.
In general terms: Incorporation of labelled thymidine or its analogues reports DNA synthesis.

The test system of assay [2] is ISRE signaling in HepG2 cells. In words: ISRE-luciferase signal transduction reporter assay in HepG2 cells. Type of assay: cell-based, human. The following applies: 100 ng/ml ligand, 4-hour; RLU over medium alone.
The subject of a further assay is HHV-8. In words: HHV-8 replication in BCBL-1 cells (TaqMan PCR, CellTiter96). Type of assay: cell-based, Human Herpesvirus-8. The following applies: six days.
For assay [3], the system named is ISG gene expression (OAS, Pkr, Mx1) in liver, spleen and blood. In words: ISG gene expression in liver, spleen and blood of injected mice (real-time PCR). Type of assay: in vivo, mouse. Conditions: mice. The protocol: Mice were sacrificed at various time points (1 hr-48 hr). Spleens and livers were isolated from mice, and RNA was isolated. RNA was also isolated from the blood cells. The cells were pelleted and RNA isolated from pellets using RNAEasy®-kit (Qiagen). RNA was treated with DNase (Amicon) to rid RNA of any contaminating DNA. cDNA was generated using Perkin-Elmer RT mix (Perkin-Elmer). ISG gene induction was measured by real-time PCR using primers and probes specific for mouse OAS, Pkr and Mx1. To obtain quantitative data, HPRT real-time PCR was duplexed with ISG PCR. A standard curve was calculated using known amounts of IFN-stimulated mouse PBLs. All data are shown as expression relative to internal HPRT expression.
Results shown are fold expression relative to HPRT gene expression. […] The data shown is the average expression from 5 different animals/group.
Mice were injected with 100 μg of proteins i.v. Data shown is fold expression over HPRT expression from livers of mice. Similar data was obtained from blood and spleens of mice.

The next assay relates to BVDV. The experiment in a line: BVDV cytopathic effect inhibition in MDBK bovine kidney cells. Type of assay: cell-based, bovine viral diarrhea virus. Here is the method:
The MDBK cells were propagated in Dulbecco's modified essential medium (DMEM) containing phenol red with 10% horse serum, 1% glutamine and 1% penicillin-streptomycin. CPE inhibition assays were performed in DMEM without phenol red with 2% FBS, 1% glutamine and 1% Pen-Strep. On the day preceding the assays, cells were trypsinized (1% trypsin-EDTA), washed, counted and plated out at 10^4 cells/well in a 96-well flat-bottom BioCoat® plates (Fisher Scientific, Pittsburgh, Pa.) in a volume of 100 μl/well. The next day, the medium was removed and a pre-titered aliquot of virus was added to the cells. The amount of virus was the maximum dilution that would yield complete cell killing (>80% ) at the time of maximal CPE development (day 7 for BVDV). Cell viability was determined using a CellTiter96® reagent (Promega) according to the manufacturer's protocol, using a Vmax plate reader (Molecular Devices, Sunnyvale, Calif.). Test samples were tested at six concentrations each, diluted in assay medium in a half-log series. IFNα and RIBAVIRIN® were used as positive controls. Test sample were added at the time of viral infection. The average background and sample color-corrected data for percent CPE reduction and percent cell viability at each concentration were determined relative to controls and the IC50 calculated relative to the TC50.

The test system of assay [4] is ISGs OAS, Pkr and Mx1 in spleens. The experiment in a line: ISG expression in spleens of Eu-lck human IL-29 transgenic mice. It counts as in vivo, mouse. The following applies: spleen of IL-29 Tg mice. Here is the method:
This promoter is active in T cells and B cells. Transgenic mice and their non-transgenic littermates (n=2/gp) were sacrificed at about 10 weeks of age. Spleens of mice were isolated. RNA was isolated from cell pellets using RNAEasy-kit® (Qiagen). RNA was treated with DNase to clean RNA of any contaminating DNA. cDNA was generated using Perkin-Elmer RT® mix. ISG gene induction was evaluated by real-time PCR using primers and probes (5′ FAM, 3′ NFQ) specific for mouse OAS, Pkr and Mx1. To obtain quantitative data, HPRT real-time PCR was duplexed with ISG PCR. Furthermore, a standard curve was obtained using known amounts of IFN stimulated mouse PBLs. All data are shown as expression relative to internal HPRT expression.
All data shown are fold expression relative to HPRT gene expression. The average expression in two mice is shown

A further assay has as its system EMCV. The experiment in a line: EMCV antiviral assay (MTT dye-uptake) in HepG2 cells. Type of assay: cell-based, encephalomyocarditis virus. The following applies: cytokine 24 hours before EMCV, OD570.
Assay [5] relates to human marrow mononuclear cells. The experiment in a line: Bone marrow expansion assay (Alamar Blue). It counts as cell-based. Conditions: in the presence of IL-2 or IL-15.
The next assay deals with OAS activity. In words: OAS activity in serum and plasma of mice (OAS radioimmunoassay). It counts as in vivo, mouse. Conditions: i.v., 10 μg–250 μg. The protocol: Serum and plasma were isolated from mice at varying time points, and OAS activity was measured using the OAS radioimmunoassay (RIA) kit from Eiken Chemicals (Tokyo, Japan).
Setting [6] is: average of two mice (Non-Tg 4.5).

In the case of IFNα, the antiviral activity result in the assay on HSV-2 is “no antiviral activity”.

B1: Zcyto24: previous designation for mouse IL-28A (SEQ ID NO: 8); mouse IL-28 (zcyto24) in b234 (protein, listed as Mus musculus)
chain: MKPETAGGHMLLLLLPLLLAAVLTRTQADPVPRATRLPVEAKDCHIAQFKSLSPKELQAFKKAKDAIEKRLLEKDLRCSSHLFPRAWDLKQLQVQERPKALQAEVALTLKVWENMTDSALATILGQPLHTLSHIHSQLQTCTQLQATAEPRSPSRRLSRWLHRLQEAQSKETPGCLEASVTSNLFRLLTRDLKCVANGDQCV
In the case of B1, in the assay on adenoviral vector, AdGFP, the “liver and inflammation scores (histology)” value is “lower liver and inflammation scores”. In addition, in [1], the Mx1 expression is reported as 0.08 fold relative to HPRT gene expression, the OAS expression is reported as 0.04 fold relative to HPRT gene expression and the PkR expression is 0.02 fold relative to HPRT gene expression. In the assay on Mouse B cells (stimulated with LPS or anti-IgM, IFNα 10 ng/ml, mouse IL-28 any concentration incl. 1000 ng/ml), the “3H-thymidine incorporation by mouse B cells” value is “did not inhibit”. The “3H thymidine incorporation by mouse B cells” value in the assay with Mouse B cells (stimulated with anti-CD40 MAb) was “increased”. Besides, the “Fold Inductn. of ISRE signaling” value in [2] was determined as 4.7 fold.

B2: IL-29: human IL-29 polypeptide, previous designation zcyto21 (SEQ ID NOS: 4, 20, 38) (protein, listed as Homo sapiens)
chain: MAAAWTVVLVTLVLGLAVAGPVPTSKPTTTGKGCHIGRFKSLSPQELASFKKARDALEESLKLKNWSCSSPVFPGNWDLRLLQVRERPVALEAELALTLKVLEAAAGPALEDVLDQPLHTLHHILSQLQACIQPQPTAGPRPRGRLHHWLHRLQEAPKKESAGCLEASVTFNLFRLLTRDLKYVADGNLCLRTSTHPEST
modifications: SIGNAL (1)...(19)
In the case of B2, the “IC50, extracellular HHV-8 DNA” value in the assay on HHV-8 was found to be 6.5 µg/mL. The “time of peak expression of ISGs after injection” value in assay [3] lay within 1 to 6 h. The “IC50, inhibition of cell death induced by BVDV” value in the assay on BVDV came to 0.19 µg/mL. Also, the “liver histology: sinusoidal cells, mitotic figures, changes in the hepatocytes” value in the assay on adenoviral vector, AdGFP (vs the PBS treatment group) was “less proliferation of sinusoidal cells, fewer mitotic figures and fewer changes in the hepatocytes”. Also, in the assay with adenoviral vector, AdGFP, the “liver and inflammation scores (histology)” value was “lower liver and inflammation scores”. In assay [4] (average of two mice (Non-Tg 3.5)), the Mx1 expression is given as 21 fold expression relative to HPRT gene expression. Moreover, in assay [4] (setting [6]), the OAS expression is listed as 12 fold expression relative to HPRT gene expression and the PkR expression is reported as 8 fold expression relative to HPRT gene expression. For the same molecule, in assay [1], the Mx1 expression was 0.07 fold relative to HPRT gene expression, the OAS expression is 0.04 fold relative to HPRT gene expression and the PkR expression was 0.02 fold relative to HPRT gene expression. In addition, in the assay with EMCV, the EC50 – broadly, the concentration giving half of the maximal effect – came out at 0.60 ng/mL. Further, the “expansion of bone marrow cells” value in [5] is “small inhibition”.

B3: IL-28A: human IL-28A polypeptide, previous designation zcyto20 (SEQ ID NOS: 2, 18, 36) (protein, listed as Homo sapiens)
chain: MKLDMTGDCTPVLVLMAAVLTVTGAVPVARLHGALPDARGCHIAQFKSLSPQELQAFKRAKDALEESLLLKDCRCHSRLFPRTWDLRQLQVRERPMALEAELALTLKVLEATADTDPALVDVLDQPLHTLHHILSQFRACIQPQPTAGPRTRGRLHHWLYRLQEAPKKESPGCLEASVTFNLFRLLTRDLNCVASGDLCV
modifications: SIGNAL (1)...(25)
For B3, in the assay on HHV-8, the “IC50, extracellular HHV-8 DNA” value was determined as 1 µg/mL. The “IC50, inhibition of cell death induced by BVDV” value with BVDV amounted to 0.02 µg/mL. The “OAS activity in the serum and plasma of mice” value in the assay on OAS activity is on record as “induced OAS activity”. In addition, in assay [1], the Mx1 expression was 0.06 fold relative to HPRT gene expression, the OAS expression is on record as 0.04 fold relative to HPRT gene expression and the PkR expression is 0.02 fold relative to HPRT gene expression.
